Patent CN111320688A

Assays:
[1] = biological target: 登革病毒1-4型、西尼罗河病毒和黄热病毒 (病毒颗粒表面E蛋白); assay: cell-based or functional assay
[2] = biological target: 黄病毒属中的登革病毒、寨卡病毒、西尼罗河病毒和黄热病毒的E蛋白

B1: TIB12抗体 (antibody, V domains shown)
VH: EVQLLESGGGLVQPGGSLRLSCAASGFTFSSQVMSWVRQAPGRGLEWVSVIHTGGSSTYYADSVKGRFTISRDNSKNTVFLHMNSLRVEDTALYYCAKGSAYGDYVEY
VL: QSVLTQPPSVSGAPGQRVTISCTGSSSNIGAGYDVHWYQQPPGTAPKLLIYGNNNRPSGVPDRFSGSKSGTSASLAITGLQAEDEADYYCQSYDSSLSGGV
IC50 (中和能力; Vero细胞感染, 流式检测) [1]: 0.04 to 1.31 µg/mL
Kd [2]: 0.13 to 0.85 nM
